Measured values: IntAct's records for PubMed 22056771

Target: T1, atg7_yeast ATG7 (UniProt P38862)
T1 sequence: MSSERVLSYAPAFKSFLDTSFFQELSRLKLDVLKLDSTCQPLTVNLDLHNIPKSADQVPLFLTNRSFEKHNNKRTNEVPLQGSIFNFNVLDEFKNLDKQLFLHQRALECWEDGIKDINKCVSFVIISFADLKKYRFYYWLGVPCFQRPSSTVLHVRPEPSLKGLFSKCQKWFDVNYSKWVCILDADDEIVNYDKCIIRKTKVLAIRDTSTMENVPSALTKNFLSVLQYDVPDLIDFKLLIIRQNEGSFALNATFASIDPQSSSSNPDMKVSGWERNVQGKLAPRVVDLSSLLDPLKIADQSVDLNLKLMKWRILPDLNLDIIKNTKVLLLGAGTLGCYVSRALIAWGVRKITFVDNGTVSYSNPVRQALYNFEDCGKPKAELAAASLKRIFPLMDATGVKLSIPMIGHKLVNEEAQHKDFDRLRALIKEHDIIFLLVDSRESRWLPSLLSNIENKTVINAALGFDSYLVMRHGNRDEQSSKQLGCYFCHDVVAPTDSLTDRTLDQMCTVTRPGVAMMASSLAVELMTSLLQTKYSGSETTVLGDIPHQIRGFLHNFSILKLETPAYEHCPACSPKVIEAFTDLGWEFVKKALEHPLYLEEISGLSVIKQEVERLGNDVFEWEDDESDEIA

## Microtubule-associated protein 1 light chain 3 beta (Homo sapiens) (from UniProt Q9GZQ8) K65Y
  effect of a mutation on the interaction: increasing interaction
